T1: IL-17RB.Fc (extracellular domain of human IL-17RB fused to the Fc region of human IgG) (human, UniProt Q9NRM6 18-292)
T1 construct: extracellular domain; also called HuIL-17RB: Fc; IL-17RB Fe; not shown: Fc region of human IgG1
T1 sequence (looked up): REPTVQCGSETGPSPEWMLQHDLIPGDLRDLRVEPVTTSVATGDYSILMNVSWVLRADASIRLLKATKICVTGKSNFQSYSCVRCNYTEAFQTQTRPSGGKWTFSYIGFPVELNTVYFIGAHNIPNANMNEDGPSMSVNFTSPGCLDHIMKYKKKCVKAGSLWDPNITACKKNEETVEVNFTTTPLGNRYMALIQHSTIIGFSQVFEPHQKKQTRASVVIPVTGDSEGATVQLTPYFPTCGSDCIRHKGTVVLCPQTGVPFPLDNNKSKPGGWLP


Key:
[1] = molecular target: T1, IL-17RB.Fc (extracellular domain of …); experiment: co-immunoprecipitation on Protein G beads, Western blot
[2] = molecular target: T2, IL-17RA.Fc (extracellular domain of human IL-17RA fused to the Fc region of human IgG) (human, UniProt Q96F46 33-320); experiment: as above
T2 construct: extracellular domain; also called IL-17RA Fe; not shown: Fc region of human IgG1

human IL-17RA = human IL-17RA (human, UniProt Q96F46 33-866); experiment: cell-based or functional assay

Binder	% Inhib. of IL-5 production, TSLP treated human PBMC + IL-2 + IL-25, Expt. 1 (human IL-17RA)	% Inhib. of IL-5 production, TSLP treated human PBMC + IL-2 + IL-25, Expt. 3 (human IL-17RA)	% Inhib. of IL-5 production, TSLP treated human PBMC + IL-2 + IL-25, Expt. 2 (human IL-17RA)	binding result [1]	binding result [2]
Human IL-17RD.HIS (receptor, UniProt Q8NFM7 27-299, looked up, R&D Systems product; not shown: HIS tag) AGGSGRARGADTCGWRGVGPASRNSGLYNITFKYDNCTTYLNPVGKHVIADAQNITISQYACHDQVAVTILWSPGALGIEFLKGFRVILEELKSEGRQCQQLILKDPKQLNSSFKRTGMESQPFLNMKFETDYFVKVVPFPSIKNESNYHPFFFRTRACDLLLQPDNLACKPFWKPRNLNISQHGSDMQVSFDHAPHNFGFRFFYLHYKLKHEGPFKRKTCKQEQTTETTSCLLQNVSPGDYIIELVDDTNTTRKVMHYALKPVHSPWAGPIR	–	–	–	no binding (tested: 2 micrograms of each protein)	no binding (tested: 2 micrograms of each protein)
4.357.1 (antibody, V domains shown) VH: QVQLVQSGAEVKKPGASVKVSCKASGYTLTSYGISWVRQAPGQGLEWMGWISTYKGNTNYAQKLQGRVTMTTDTSTSTAYMELRSLRSDDTAVYYCARKQLVFDYWGQGTLVTVSS VL: EIVMTQSPATLSVSPGERATLSCRASQSISSSLAWYQQKPGQAPRLLIYGASTRATGIPARFSGSGSGTEFTLTISSLQSENFAVYYCQQYDNWPLTFGGGTKVEIK	0%	11%	–	–	–
4.393.1 (antibody, V domains shown) VH: QVQLVQSGAEVKKPGASVKVSCKASGYTFTSYGISWVRQAPGQGLEWMGWISAYNGNTKYAQKLQGRVTMTTDTSTSTVYMELRSLRSDDTAVYYCARKQLVFDYWGQGTLVTVSS VL: EIVMTQSPATLSVSPGERATLSCRASQSISTSLAWYQQKPGQAPRLLIYGTSTRATGIPARFSGSGSGTEFTLTISSLQSEDFAVYFCQQYDIWPLTFGGGTKVEIK	28%	45%	72%	–	–
2.67.1 (antibody, V domains shown) VH: QVQLVQSGAEVKKPGASVKVSCKASGYTLTRYGISWVRQAPGQGLEWMGWISAYNGNTNYAQKLQGRVTMTTDTSTSTAYMELRSLRSDDTAVYYCARRDYDILTGYYNGFDPWGQGTLVTVSS VL: DIQMTQSPSSLSASVGDRVTITCRASQGIRNDLGWYQQKPGKAPKRLIYAASSLQSGVPSRFSGSGSGTEFTLTISSLQPEDFATYYCLQHKSYPLTFGGGTKVEIK	0%	3%	13%	–	–
2.225.1 (antibody, V domains shown) VH: QVQLVQSGVEVKKPGASVKVSCKASGYTLTRYGISWVRQAPGQGLEWMGWISAYNGNTNYAQKLQGRVTMTTDTSTSTAYMELRSLRSDDTAVYYCARRDYDILTGYYNGFDPWGQGTLVTVSS VL: DIQMTQSPSSLSASVGDRVTITCRASQGIRNDLGWYQQKPGKAPKRLIYAASSLQSGVPSRFSGSGSGTEFTLTISSLQPEDFATYYCLQHKSYPLTFGGGTKVEIK	0%	0%	–	–	–

Second part, led by results:

% Inhib. of IL-5 production, TSLP treated human PBMC + IL-2 + IL-25, Expt. 1 (human IL-17RA)	% Inhib. of IL-5 production, TSLP treated human PBMC + IL-2 + IL-25, Expt. 3 (human IL-17RA)	% Inhib. of IL-5 production, TSLP treated human PBMC + IL-2 + IL-25, Expt. 2 (human IL-17RA)	Binder	binding result [1]	binding result [2]
0%	9%	41%	1.185.1 (antibody, V domains shown) VH: QVQLVESGGGVVQPGRSLRLSCAASGINFSSYGMHWVRQAPGKGLEWVAVIWYDGSNKHYADSVKGRFTISRDNSKNTLYLQMNSLRAEDTAVYYCARDTGVYWGQGTLVTVSS VL: not shown	–	–
0%	0%	79%	2.98.1 (antibody, V domains shown) VH: QVQLVQSGAEVKKPGASVKVSCKASGYTLTRYGISWVRQAPGQGLEWMGWISAYNGNTNYAQKLQGRVTMTTDTSTSTAYMELRSLRSDDTAVYYCARRDYDILTGYYNGFDPWGQGTLVTVSS VL: DIQMTQSPSSLSASVGDRVTITCRASQGIRNDLGWYQQKPGKAPKRLIYAASSLQSGVPSRFSGSGSGTEFTLTISSLQPEDFATYYCLQHKSYPLTFGGGTKVEIK	–	–
0%	0%	6%	2.46.1 (antibody, V domains shown) VH: QVQLVQSGAEVKKPGASVKVSCKASGNTFTGYGISWVRQAPGQGLEWMGWISAYNGNTNYAQNLQGRVTMTTDTSTSTAYMELRSLRSDDTAVYYCARRDYDILTGYYNGFDPWGQGTLVTVSS VL: DIQMTQSPSSLSASVGDRVTITCRASQGIRNDLGWYQQKPGKAPKRLIYAASSLQSGVPSRFSGSGSGTEFTLTISSLQPEDFATYYCLQHKSYPLTFGGGTKVEIK	–	–
0%	0%	43%	3.1545.1 (antibody, V domains shown) VH: EVQLVESGGGSVQPGGSLRLSCAASGFTFSSYSMNWVRQAPGKGLEWVSIISSRSSIIHYADSVKGRFTISRDNAKNSLYLQMNSLRDEDTAVYYCARPKVGGGMDVWGQGTTVTVSS VL: DIQMTQSPSSLSASVGDRVTITCRASQGISNYLAWYQQKPGKFPELLIYAASTLQSGVPSRFSGSGSGTDFTLTISSLQPEDVATYYCQKYNRAPFTFGPGTKVDIK	–	–
